Laboratory results from patent US20260055205A1 (published 2026).

Tests used:
human CD3 epsilon = molecular target: T1, human CD3 epsilon (human, UniProt P07766 23-126, limits assumed); assay: Octet, crude lysate
T1 construct: also called huCD3e
Description: Pool 2 consisted of paTCE molecules each containing PSMA.262 and one of 64 CD3.23 mutation combination variants. Stability and affinity of the individually expressed molecules in the form of crude lysate was evaluated by Octet. […] The binding of these anti-CD3 molecules (CD3.227, CD3.228, CD3.229 and CD3.230) to human and cynomolgus CD3 was measured by Octet and the Tm was measured by Differential Scanning Fluorimetry. All variants were paired with PSMA.262 except for CD3.23 which was paired with PSMA.5.

human PSMA = molecular target: T2, human PSMA (human, UniProt Q04609 44-750, limits assumed); assay: binding screen
T2 construct: also called huPSMA; hPSMA
T2 sequence (Q04609 44-750 limits assumed): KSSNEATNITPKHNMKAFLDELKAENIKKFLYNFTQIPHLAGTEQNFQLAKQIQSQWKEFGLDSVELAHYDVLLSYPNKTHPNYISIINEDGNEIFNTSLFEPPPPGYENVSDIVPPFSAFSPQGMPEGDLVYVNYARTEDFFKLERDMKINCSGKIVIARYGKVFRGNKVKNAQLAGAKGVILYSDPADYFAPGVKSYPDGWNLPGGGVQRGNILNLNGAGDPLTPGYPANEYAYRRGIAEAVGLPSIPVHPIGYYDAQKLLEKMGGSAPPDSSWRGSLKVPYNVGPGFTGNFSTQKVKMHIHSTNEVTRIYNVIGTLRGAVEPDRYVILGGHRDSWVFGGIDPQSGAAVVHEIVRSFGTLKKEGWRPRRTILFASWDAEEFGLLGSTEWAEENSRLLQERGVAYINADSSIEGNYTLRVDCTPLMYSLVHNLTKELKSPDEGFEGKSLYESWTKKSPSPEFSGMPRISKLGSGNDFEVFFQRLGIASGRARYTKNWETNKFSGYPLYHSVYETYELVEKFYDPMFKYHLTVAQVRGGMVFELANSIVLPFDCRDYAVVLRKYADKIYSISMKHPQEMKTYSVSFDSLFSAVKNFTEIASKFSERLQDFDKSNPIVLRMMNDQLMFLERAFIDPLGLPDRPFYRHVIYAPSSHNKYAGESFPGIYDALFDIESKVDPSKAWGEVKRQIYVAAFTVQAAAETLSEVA

T1 sequence (P07766 23-126 limits assumed): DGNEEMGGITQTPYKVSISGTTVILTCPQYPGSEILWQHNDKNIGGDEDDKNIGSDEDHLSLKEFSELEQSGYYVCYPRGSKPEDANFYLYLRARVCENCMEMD

Kd (human CD3 epsilon)	Kd (human PSMA)	Binder	further results
22.4 nM		CD3.255 (bispecific antibody, V domains shown, paTCE with PSMA.262; also called AC3686) VH: EVQLVESGGGIVQPGGSLRLSCAASGFTFNTYAMNWVRQAPGKGLEWVGRIRSKRNNYATTYADSVKDRFTISRDDSKNTVYLQMNELKTEDTAVYYCVRHENFGNSYVSWFAHWGQGTLVTVSS VL: ELVVTQEPSLTVSPGGTVTLTCRSSNGAVTSSNYANWVQQKPGQAPRGLIGGTNKRAPGTPARFSGSLLGGKAALTLSGVQPEDEAVYYCALWYPNLWVFGGGTKLTVL	
38 nM		CD3.258 (bispecific antibody, V domains shown, paTCE with PSMA.262; also called AC3689) VH: EVQLVESGGGIVQPGGSLRLSCAASGFTFNTYAMNWVRQAPGKGLEWVGRIRTKYNNYATTYADSVKDRFTISRDDSKNTLYLQMNSLKTEDTAVYYCVRHENFGNSYVSWFAHWGQGTLVTVSS VL: ELVVTQEPSLTVSPGGTVTLTCRSSNGAVTSSNYANWVQQKPGQAPRGLIGGTNKRAPGTPARFSGSLLGGKAALTLSGVQPEDEAVYYCALWYPNLWVFGGGTKLTVL	
4.5 nM		CD3.264 (bispecific antibody, V domains shown, paTCE with PSMA.262; also called AC3695) VH: EVQLVESGGGIVQPGGSLKLSCAASGFTFSTYAMNWVRQAPGKGLEWVGRIRTKRNNYATYYADSVKGRFTISRDDSKNTVYLQMNSLKTEDTAVYYCVRHENFGNSYVSWFAHWGQGTLVTVSS VL: ELVVTQEPSLTVSPGGTVTLTCRSSNGAVTSSNYANWVQQKPGQAPRGLIGGTNKRAPGTPARFSGSLLGGKAALTLSGVQPEDEAVYYCALWYPNLWVFGGGTKLTVL	
45.6 nM		CD3.260 (bispecific antibody, V domains shown, paTCE with PSMA.262; also called AC3691) VH: EVQLVESGGGIVQPGGSLRLSCAASGFTFNTYAMNWVRQAPGKGLEWVGRIRSKKNNYATTYADSVKDRFTISRDDSKNTLYLQMNSLKTEDTAVYYCVRHENFGNSYVSWFAHWGQGTLVTVSS VL: ELVVTQEPSLTVSPGGTVTLTCRSSNGAVTSSNYANWVQQKPGQAPRGLIGGTNKRAPGTPARFSGSLLGGKAALTLSGVQPEDEAVYYCALWYPNLWVFGGGTKLTVL	
159 nM		CD3.257 (bispecific antibody, V domains shown, paTCE with PSMA.262; also called AC3688) VH: EVQLVESGGGIVQPGGSLRLSCAASGFTFNTYAMNWVRQAPGKGLEWVGRIRSKTNNYATTYADSVKDRFTISRDDSKNTVYLQMNELKTEDTAVYYCVRHENFGNSYVSWFAHWGQGTLVTVSS VL: ELVVTQEPSLTVSPGGTVTLTCRSSNGAVTSSNYANWVQQKPGQAPRGLIGGTNKRAPGTPARFSGSLLGGKAALTLSGVQPEDEAVYYCALWYPNLWVFGGGTKLTVL	
97 nM		CD3.261 (bispecific antibody, V domains shown, paTCE with PSMA.262; also called AC3692) VH: EVQLVESGGGIVQPGGSLRLSCAASGFTFNTYAMNWVRQAPGKGLEWVGRIRSKTNNYATTYADSVKDRFTISRDDSKNTLYLQMNSLKTEDTAVYYCVRHENFGNSYVSWFAHWGQGTLVTVSS VL: ELVVTQEPSLTVSPGGTVTLTCRSSNGAVTSSNYANWVQQKPGQAPRGLIGGTNKRAPGTPARFSGSLLGGKAALTLSGVQPEDEAVYYCALWYPNLWVFGGGTKLTVL	
7.2 nM		CD3.263 (bispecific antibody, V domains shown, paTCE with PSMA.262; also called AC3694) VH: EVQLVESGGGIVQPGGSLKLSCAASGFTFNTYAMNWVRQAPGKGLEWVGRIRTKRNNYATYYADSVKGRFTISRDDSKNTVYLQMNSLKTEDTAVYYCVRHENFGNSYVSWFAHWGQGTLVTVSS VL: ELVVTQEPSLTVSPGGTVTLTCRSSNGAVTSSNYANWVQQKPGQAPRGLIGGTNKRAPGTPARFSGSLLGGKAALTLSGVQPEDEAVYYCALWYPNLWVFGGGTKLTVL	
25.4 nM		CD3.262 (bispecific antibody, V domains shown, paTCE with PSMA.262; also called AC3693) VH: EVQLVESGGGIVQPGGSLRLSCAASGFTFNTYAMNWVRQAPGKGLEWVGRIRSKRNNYATTYADSVKDRFTISRDDSKNTLYLQMNELKTEDTAVYYCVRHENFGNSYVSWFAHWGQGTLVTVSS VL: ELVVTQEPSLTVSPGGTVTLTCRSSNGAVTSSNYANWVQQKPGQAPRGLIGGTNKRAPGTPARFSGSLLGGKAALTLSGVQPEDEAVYYCALWYPNLWVFGGGTKLTVL	
29.4 nM		CD3.259 (bispecific antibody, V domains shown, paTCE with PSMA.262; also called AC3690) VH: EVQLVESGGGIVQPGGSLRLSCAASGFTFNTYAMNWVRQAPGKGLEWVGRIRSKRNNYATTYADSVKDRFTISRDDSKNTLYLQMNSLKTEDTAVYYCVRHENFGNSYVSWFAHWGQGTLVTVSS VL: ELVVTQEPSLTVSPGGTVTLTCRSSNGAVTSSNYANWVQQKPGQAPRGLIGGTNKRAPGTPARFSGSLLGGKAALTLSGVQPEDEAVYYCALWYPNLWVFGGGTKLTVL	
	10.4 nM	PSMA.306 (bispecific antibody, V domains shown, TCE with CD3.23; also called AC3708) VH: QVQLVESGGGVVQPGRSLRLSCAASGRTFGIYVMGWFRQAPGKEREFVGAMSWSGSNRKVSDSVKGRFTISRDNSKNTLYLQMNSLRAEDTAVYYCAASNKLYGRTWYDFNESDYWGQGTQVTVSS	
	24.2 nM	PSMA.315 (bispecific antibody, V domains shown, TCE with CD3.23; also called AC3717) VH: QVQLVESGGGVVQPGRSLRLSCAASGRTFGIYVMGWFRQAPGKEREFVGAISWSGSNRKVSDSVKGRFTISRDNSKNTLYLQMNSLRAEDTAVYYCAASNKEYGRTWYDFNESDYWGQGTQVTVSS	
	2.8 nM	PSMA.302 (bispecific antibody, V domains shown, TCE with CD3.23; also called AC3704) VH: QVQLVESGGGVVQPGRSLRLSCAASGRTFGIYVWGWFRQAPGKEREFVGAISWSGSNRKVSDSVKGRFTISRDNSKNTLYLQMNSLRAEDTAVYFCAASNKLYGRTWYDFNESDYWGQGTQVTVSS	
	10 nM	PSMA.301 (bispecific antibody, V domains shown, TCE with CD3.23; also called AC3703) VH: QVQLVESGGGVVQPGRSLRLSCAASGRTFGIYVMGWFRQAPGKEREFVGAISWSGSNRKVSDSVKGRFTISRDNSKNTLYLQMNSLRAEDTAVYFCAASNKLYGRTWYDFNESDYWGQGTQVTVSS	
		PSMA.318 (bispecific antibody, V domains shown, TCE with CD3.23; also called AC3720) VH: QVQLVESGGGVVQPGRSLRLSCAASGRTFGIYVMGWFRQAPGKEREFVGAISWSGSNRKVSDSVKGRFTISRDNSKNTLYLQMNSLRAEDTAVRYCAGSNKLYGRTWYDFNESDYWGQGTQVTVSS	binding result (human PSMA): no binding
		PSMA.311 (bispecific antibody, V domains shown, TCE with CD3.23; also called AC3713) VH: QVQLVESGGGVVQPGRSLRLSCAASGRTFGIYVMGWFRQAPGKEREFVGAISWSGSNRKVSDSVKGRFTISRDNSKNTLYLQMNSLRAEDTAVDYCAASNKLYGRTWYDFNESDYWGQGTQVTVSS	binding result (human PSMA): no binding
	150 nM	PSMA.316 (bispecific antibody, V domains shown, TCE with CD3.23; also called AC3718) VH: QVQLVESGGGVVQPGRSLRLSCAASGRTFGIYVMGWFRQAPGKEREFVGAISWSGSNRKVSDSVKGRFTISRDNSKNTLYLQMNSLRAEDTAVYYCAASNKGYGRTWYDFNESDYWGQGTQVTVSS	
		PSMA.317 (bispecific antibody, V domains shown, TCE with CD3.23; also called AC3719) VH: QVQLVESGGGVVQPGRSLRLSCAASGRTFGIYVMGWFRQAPGKEREFVGAISWSGSNRKVSDSVKGRFTISRDNSKNTLYLQMNSLRAEDTAVAYCAGSNKLYGRTWYDFNESDYWGQGTQVTVSS	binding result (human PSMA): no binding
	69.9 nM	PSMA.314 (bispecific antibody, V domains shown, TCE with CD3.23; also called AC3716) VH: QVQLVESGGGVVQPGRSLRLSCAASGRTFGIYVMGWFRQAPGKEREFVGAISWSGSNRKVSDSVKGRFTISRDNSKNTLYLQMNSLRAEDTAVYYCAASNKDYGRTWYDFNESDYWGQGTQVTVSS	
		PSMA.313 (bispecific antibody, V domains shown, TCE with CD3.23; also called AC3715) VH: QVQLVESGGGVVQPGRSLRLSCAASGRTFGIYVMGWFRQAPGKEREFVGAISWSGSNRKVSDSVKGRFTISRDNSKNTLYLQMNSLRAEDTAVYYCAASNKRYGRTWYDFNESDYWGQGTQVTVSS	binding result (human PSMA): no binding
	8.5 nM	PSMA.309 (bispecific antibody, V domains shown, TCE with CD3.23; also called AC3711) VH: QVQLVESGGGVVQPGRSLRLSCAASGRTFGIYVWGWFRQAPGKEREFVGAMSWSGSNRKVSDSVKGRFTISRDNSKNTLYLQMNSLRAEDTAVYFCAASNKWYGRTWYDFNESDYWGQGTQVTVSS	
	6 nM	PSMA.307 (bispecific antibody, V domains shown, TCE with CD3.23; also called AC3709) VH: QVQLVESGGGVVQPGRSLRLSCAASGRTFGIYVWGWFRQAPGKEREFVGAMSWSGSNRKVSDSVKGRFTISRDNSKNTLYLQMNSLRAEDTAVYYCAASNKLYGRTWYDFNESDYWGQGTQVTVSS	
	8.8 nM	PSMA.308 (bispecific antibody, V domains shown, TCE with CD3.23; also called AC3710) VH: QVQLVESGGGVVQPGRSLRLSCAASGRTFGIYVWGWFRQAPGKEREFVGAMSWSGSNRKVSDSVKGRFTISRDNSKNTLYLQMNSLRAEDTAVYYCAASNKWYGRTWYDFNESDYWGQGTQVTVSS	
		PSMA.305 (bispecific antibody, V domains shown, TCE with CD3.23; also called AC3707) VH: QVQLVESGGGVVQPGRSLRLSCAASGRTFGIYVWGWFRQAPGKEREFVGAISWSGSNRKVSDSVKGRFTISRDNSKNTLYLQMNSLRAEDTAVYYCAASNKLYGRTWYDFNESDYWGQGTQVTVSS	binding result (human PSMA): binds
	12 nM	PSMA.312 (bispecific antibody, V domains shown, TCE with CD3.23; also called AC3714) VH: QVQLVESGGGVVQPGRSLRLSCAASGRTFGIYVMGWFRQAPGKEREFVGAISWSGSNRKVSDSVKGRFTISRDNSKNTLYLQMNSLRAEDTAVYYCGASNKLYGRTWYDFNESDYWGQGTQVTVSS	
	23.1 nM	PSMA.310 (bispecific antibody, V domains shown, TCE with CD3.23; also called AC3712) VH: QVQLVESGGGVVQPGRSLRLSCAASGRTFGIYVMGWFRQAPGKEREFVGAISWSGSNRKVSDSVKGRFTISRDNSKNTLYLQMNSLRAEDTAVYYCGGSNKLYGRTWYDFNESDYWGQGTQVTVSS	
	5.9 nM	PSMA.304 (bispecific antibody, V domains shown, TCE with CD3.23; also called AC3706) VH: QVQLVESGGGVVQPGRSLRLSCAASGRTFGIYVWGWFRQAPGKEREFVGAMSWSGSNRKVSDSVKGRFTISRDNSKNTLYLQMNSLRAEDTAVYFCAASNKLYGRTWYDFNESDYWGQGTQVTVSS	
	10.3 nM	PSMA.303 (bispecific antibody, V domains shown, TCE with CD3.23; also called AC3705) VH: QVQLVESGGGVVQPGRSLRLSCAASGRTFGIYVMGWFRQAPGKEREFVGAMSWSGSNRKVSDSVKGRFTISRDNSKNTLYLQMNSLRAEDTAVYFCAASNKLYGRTWYDFNESDYWGQGTQVTVSS	
